Measurements from US10941182 (Amgen, dated 2021).
Starred links: 1 amine or outer side, 2 acyl side, 3 side chain; linkers in the order of their positions; H or OH if unused. Non-standard residues stand in square brackets, D forms with d. *: point of attachment. AC4Abu = α-carboxy-4-aminobutyric acid, O=C(C(CCN[*:1])C(=O)[*:3])[*:2]; Oic = O=C(O)[C@@H]1C[C@@H]2CCCC[C@@H]2N1; Phe(4-Cl) = N[C@@H](Cc1ccc(Cl)cc1)C(=O)O; γGlu = O=C(O)[C@H](CCC(=O)[*:2])N[*:1]; 1Nal = N[C@@H](Cc1cccc2ccccc12)C(=O)O; NMeR = CN[C@@H](CCCNC(=N)N)C(=O)O; Tridecanoyl = CCCCCCCCCCCCC(=O)*; Cha = N[C@@H](CC1CCCCC1)C(=O)O; Gly(N-CH2CH2OH) = O=C(O)CNCCO; Tle = CC(C)(C)[C@H](N)C(=O)O; Nle = CCCC[C@H](N)C(=O)O; AEEA = NCCOCCOCC(=O)O; Aib = CC(C)(N)C(=O)O; βAla = NCCC(=O)O

T1: human APJ receptor (human, UniProt P35414 1-380)
T1 sequence (looked up): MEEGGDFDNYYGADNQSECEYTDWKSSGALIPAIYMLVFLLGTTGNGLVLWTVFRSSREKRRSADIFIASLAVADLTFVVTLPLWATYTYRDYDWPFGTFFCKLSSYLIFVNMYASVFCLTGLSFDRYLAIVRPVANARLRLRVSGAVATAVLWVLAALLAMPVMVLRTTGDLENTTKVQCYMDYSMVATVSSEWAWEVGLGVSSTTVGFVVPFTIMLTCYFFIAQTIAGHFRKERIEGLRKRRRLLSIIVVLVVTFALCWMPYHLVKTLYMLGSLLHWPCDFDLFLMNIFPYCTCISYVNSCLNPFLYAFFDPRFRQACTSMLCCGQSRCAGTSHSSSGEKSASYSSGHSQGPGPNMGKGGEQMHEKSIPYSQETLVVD

T2: rat APJ receptor (rat, UniProt Q9JHG3 1-377)
T2 sequence (looked up): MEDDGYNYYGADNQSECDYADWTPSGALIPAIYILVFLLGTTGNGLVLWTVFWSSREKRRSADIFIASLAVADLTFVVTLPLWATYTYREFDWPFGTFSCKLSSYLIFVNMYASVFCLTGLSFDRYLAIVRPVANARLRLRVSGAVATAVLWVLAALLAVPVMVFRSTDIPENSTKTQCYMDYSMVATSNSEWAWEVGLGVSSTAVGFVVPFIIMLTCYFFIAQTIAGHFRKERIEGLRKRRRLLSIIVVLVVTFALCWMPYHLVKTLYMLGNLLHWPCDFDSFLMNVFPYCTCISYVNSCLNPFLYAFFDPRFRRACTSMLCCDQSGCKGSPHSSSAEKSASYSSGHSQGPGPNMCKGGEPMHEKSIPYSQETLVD


Assays:
[1] = biological target: T1, human APJ receptor; test: cell-based or functional assay
[2] = biological target: T2, rat APJ receptor; test: cell-based or functional assay

Binder	EC50 Human APJ Receptor (GTPγS assay) [1] [nM]	EC50 Rat APJ Receptor (GTPγS assay) [2] [nM]
XXXQRPRLXHKGPXPF ({TDA}[AC4Abu][Aeea][Aeea]QRP[NMeArg]L[Pra]HKGP[Nle]P[4-Cl-F]{COOH}) [Apelin polypeptide SEQ ID NO: 450]	0.132	0.313
Tridecanoyl-[γGlu][AEEA][AEEA]QRP[NMeR][Cha]SYKG[Oic][Nle]P[Phe(4-Cl)]-OH (SMILES CCCCCCCCCCCCC(=O)N[C@@H](CCC(=O)NCCOCCOCC(=O)NCCOCCOCC(=O)N[C@@H](CCC(N)=O)C(=O)N[C@@H](CCCNC(=N)N)C(=O)N1CCC[C@H]1C(=O)N(C)[C@@H](CCCNC(=N)N)C(=O)N[C@@H](CC1CCCCC1)C(=O)N[C@@H](CO)C(=O)N[C@@H](Cc1ccc(O)cc1)C(=O)N[C@@H](CCCCN)C(=O)NCC(=O)N1[C@H](C(=O)N[C@@H](CCCC)C(=O)N2CCC[C@H]2C(=O)N[C@@H](Cc2ccc(Cl)cc2)C(=O)O)C[C@@H]2CCCC[C@@H]21)C(=O)O) [Apelin polypeptide SEQ ID NO: 436]	0.793	1.47
Tridecanoyl-[γGlu][AEEA][AEEA]QRP[NMeR]LSHHGP[Nle]P[Phe(4-Cl)]-OH (SMILES CCCCCCCCCCCCC(=O)N[C@@H](CCC(=O)NCCOCCOCC(=O)NCCOCCOCC(=O)N[C@@H](CCC(N)=O)C(=O)N[C@@H](CCCNC(=N)N)C(=O)N1CCC[C@H]1C(=O)N(C)[C@@H](CCCNC(=N)N)C(=O)N[C@@H](CC(C)C)C(=O)N[C@@H](CO)C(=O)N[C@@H](Cc1c[nH]cn1)C(=O)N[C@@H](Cc1c[nH]cn1)C(=O)NCC(=O)N1CCC[C@H]1C(=O)N[C@@H](CCCC)C(=O)N1CCC[C@H]1C(=O)N[C@@H](Cc1ccc(Cl)cc1)C(=O)O)C(=O)O) [Apelin polypeptide SEQ ID NO: 448]	0.133	0.305
Tridecanoyl-[γGlu][AEEA][AEEA]QRP[NMeR]L[βAla]HKGP[Nle]P[Phe(4-Cl)]-OH (SMILES CCCCCCCCCCCCC(=O)N[C@@H](CCC(=O)NCCOCCOCC(=O)NCCOCCOCC(=O)N[C@@H](CCC(N)=O)C(=O)N[C@@H](CCCNC(=N)N)C(=O)N1CCC[C@H]1C(=O)N(C)[C@@H](CCCNC(=N)N)C(=O)N[C@@H](CC(C)C)C(=O)NCCC(=O)N[C@@H](Cc1c[nH]cn1)C(=O)N[C@@H](CCCCN)C(=O)NCC(=O)N1CCC[C@H]1C(=O)N[C@@H](CCCC)C(=O)N1CCC[C@H]1C(=O)N[C@@H](Cc1ccc(Cl)cc1)C(=O)O)C(=O)O) [Apelin polypeptide SEQ ID NO: 464]	0.0542	0.377
Tridecanoyl-[γGlu][AEEA][AEEA][dQ]RP[NMeR][Cha]SYKG[Oic][Nle][Aib][Phe(4-Cl)]-OH (SMILES CCCCCCCCCCCCC(=O)N[C@@H](CCC(=O)NCCOCCOCC(=O)NCCOCCOCC(=O)N[C@H](CCC(N)=O)C(=O)N[C@@H](CCCNC(=N)N)C(=O)N1CCC[C@H]1C(=O)N(C)[C@@H](CCCNC(=N)N)C(=O)N[C@@H](CC1CCCCC1)C(=O)N[C@@H](CO)C(=O)N[C@@H](Cc1ccc(O)cc1)C(=O)N[C@@H](CCCCN)C(=O)NCC(=O)N1[C@H](C(=O)N[C@@H](CCCC)C(=O)NC(C)(C)C(=O)N[C@@H](Cc2ccc(Cl)cc2)C(=O)O)C[C@@H]2CCCC[C@@H]21)C(=O)O) [Apelin polypeptide SEQ ID NO: 531]	0.852	5.66
Tridecanoyl-[γGlu][AEEA][AEEA]QRP[NMeR][Tle]SHKG[Oic][Nle]P[Phe(4-Cl)]-OH (SMILES CCCCCCCCCCCCC(=O)N[C@@H](CCC(=O)NCCOCCOCC(=O)NCCOCCOCC(=O)N[C@@H](CCC(N)=O)C(=O)N[C@@H](CCCNC(=N)N)C(=O)N1CCC[C@H]1C(=O)N(C)[C@@H](CCCNC(=N)N)C(=O)N[C@H](C(=O)N[C@@H](CO)C(=O)N[C@@H](Cc1c[nH]cn1)C(=O)N[C@@H](CCCCN)C(=O)NCC(=O)N1[C@H](C(=O)N[C@@H](CCCC)C(=O)N2CCC[C@H]2C(=O)N[C@@H](Cc2ccc(Cl)cc2)C(=O)O)C[C@@H]2CCCC[C@@H]21)C(C)(C)C)C(=O)O) [Apelin polypeptide SEQ ID NO: 439]	2.15	3.21
Tridecanoyl-[γGlu][AEEA][AEEA]QRP[NMeR]LSH[βAla]GP[Nle]P[Phe(4-Cl)]-OH (SMILES CCCCCCCCCCCCC(=O)N[C@@H](CCC(=O)NCCOCCOCC(=O)NCCOCCOCC(=O)N[C@@H](CCC(N)=O)C(=O)N[C@@H](CCCNC(=N)N)C(=O)N1CCC[C@H]1C(=O)N(C)[C@@H](CCCNC(=N)N)C(=O)N[C@@H](CC(C)C)C(=O)N[C@@H](CO)C(=O)N[C@@H](Cc1c[nH]cn1)C(=O)NCCC(=O)NCC(=O)N1CCC[C@H]1C(=O)N[C@@H](CCCC)C(=O)N1CCC[C@H]1C(=O)N[C@@H](Cc1ccc(Cl)cc1)C(=O)O)C(=O)O) [Apelin polypeptide SEQ ID NO: 424]	4.15	17.2
Tridecanoyl-[γGlu][AEEA][AEEA]QRP[NMeR]L[Gly(N-CH2CH2OH)]HKGP[Nle]P[Phe(4-Cl)]-OH (SMILES CCCCCCCCCCCCC(=O)N[C@@H](CCC(=O)NCCOCCOCC(=O)NCCOCCOCC(=O)N[C@@H](CCC(N)=O)C(=O)N[C@@H](CCCNC(=N)N)C(=O)N1CCC[C@H]1C(=O)N(C)[C@@H](CCCNC(=N)N)C(=O)N[C@@H](CC(C)C)C(=O)N(CCO)CC(=O)N[C@@H](Cc1c[nH]cn1)C(=O)N[C@@H](CCCCN)C(=O)NCC(=O)N1CCC[C@H]1C(=O)N[C@@H](CCCC)C(=O)N1CCC[C@H]1C(=O)N[C@@H](Cc1ccc(Cl)cc1)C(=O)O)C(=O)O) [Apelin polypeptide SEQ ID NO: 467]	0.129	0.521
Tridecanoyl-[γGlu][AEEA][AEEA]QRP[NMeR]LSH[1Nal]GP[Nle]P[Phe(4-Cl)]-OH (SMILES CCCCCCCCCCCCC(=O)N[C@@H](CCC(=O)NCCOCCOCC(=O)NCCOCCOCC(=O)N[C@@H](CCC(N)=O)C(=O)N[C@@H](CCCNC(=N)N)C(=O)N1CCC[C@H]1C(=O)N(C)[C@@H](CCCNC(=N)N)C(=O)N[C@@H](CC(C)C)C(=O)N[C@@H](CO)C(=O)N[C@@H](Cc1c[nH]cn1)C(=O)N[C@@H](Cc1cccc2ccccc12)C(=O)NCC(=O)N1CCC[C@H]1C(=O)N[C@@H](CCCC)C(=O)N1CCC[C@H]1C(=O)N[C@@H](Cc1ccc(Cl)cc1)C(=O)O)C(=O)O) [Apelin polypeptide SEQ ID NO: 449]	0.394	0.47
Tridecanoyl-[AC4Abu][AEEA][AEEA]QRP[NMeR]LS[βAla]KGP[Nle]P[Phe(4-Cl)]-OH (SMILES CCCCCCCCCCCCC(=O)NCCC(C(=O)O)C(=O)NCCOCCOCC(=O)NCCOCCOCC(=O)N[C@@H](CCC(N)=O)C(=O)N[C@@H](CCCNC(=N)N)C(=O)N1CCC[C@H]1C(=O)N(C)[C@@H](CCCNC(=N)N)C(=O)N[C@@H](CC(C)C)C(=O)N[C@@H](CO)C(=O)NCCC(=O)N[C@@H](CCCCN)C(=O)NCC(=O)N1CCC[C@H]1C(=O)N[C@@H](CCCC)C(=O)N1CCC[C@H]1C(=O)N[C@@H](Cc1ccc(Cl)cc1)C(=O)O) [Apelin polypeptide SEQ ID NO: 423]	0.645	1.18
